In article PMC6628648, “Enabling microbial syringol conversion through structure-guided protein engineering” (Proceedings of the National Academy of Sciences of the …, 2019):

How the values were obtained:
COc1cccc(OC)c1O = assay: purified protein, by the assay type; settings: pH 7.5; 25.0 °C
COc1ccccc1O = assay: purified protein, by the assay type; settings: pH 7.5; 25.0 °C

GcoA-F169A (Amycolatopsis sp. ATCC 39116; F169A)
Km (COc1cccc(OC)c1O): 10 ± 1 µM
kcat (COc1cccc(OC)c1O): 5.9 ± 0.01 s⁻¹
kcat/Km (COc1cccc(OC)c1O): 600000 ± 90000 M⁻¹ s⁻¹
Km (COc1ccccc1O): 40 ± 6 µM
kcat (COc1ccccc1O): 11 ± 0.03 s⁻¹
kcat/Km (COc1ccccc1O): 290000 ± 40000 M⁻¹ s⁻¹
